The labels stand for the following.
B1: Structural maintenance of chromosomes protein 5 (Saccharomyces cerevisiae), Q08204 (parent)
chain: MTSLIDLGRYVERTHHGEDTEPRSKRVKIAKPDLSSFQPGSIIKIRLQDFVTYTLTEFNLSPSLNMIIGPNGSGKSTFVCAVCLGLAGKPEYIGRSKKVEDFIKNGQDVSKIEITLKNSPNVTDIEYIDARDETIKITRIITRSKRRSDYLINDYQVSESVVKTLVAQLNIQLDNLCQFLSQERVEEFARLKSVKLLVETIRSIDASLLDVLDELRELQGNEQSLQKDLDFKKAKIVHLRQESDKLRKSVESLRDFQNKKGEIELHSQLLPYVKVKDHKEKLNIYKEEYERAKANLRAILKDKKPFANTKKTLENQVEELTEKCSLKTDEFLKAKEKINEIFEKLNTIRDEVIKKKNQNEYYRGRTKKLQATIISTKEDFLRSQEILAQTHLPEKSVFEDIDIKRKEIINKEGEIRDLISEIDAKANAINHEMRSIQRQAESKTKSLTTTDKIGILNQDQDLKEVRDAVLMVREHPEMKDKILEPPIMTVSAINAQFAAYLAQCVDYNTSKALTVVDSDSYKLFANPILDKFKVNLRELSSADTTPPVPAETVRDLGFEGYLSDFITGDKRVMKMLCQTSKIHTIPVSRRELTPAQIKKLITPRPNGKILFKRIIHGNRLVDIKQSAYGSKQVFPTDVSIKQTNFYQGSIMSNEQKIRIENEIINLKNEYNDRKSTLDALSNQKSGYRHELSELASKNDDINREAHQLNEIRKKYTMRKSTIETLREKLDQLKREARKDVSQKIKDIDDQIQQLLLKQRHLLSKMASSMKSLKNCQKELISTQILQFEAQNMDVSMNDVIGFFNEREADLKSQYEDKKKFVKEMRDTPEFQSWMREIRSYDQDTKEKLNKVAEKYEEEGNFNLSFVQDVLDKLESEIAMVNHDESAVTILDQVTAELRELEHTVPQQSKDLETIKAKLKEDHAVLEPKLDDIVSKISARFARLFNNVGSAGAVRLEKPKDYAEWKIEIMVKFRDNAPLKKLDSHTQSGGERAVSTVLYMIALQEFTSAPFRVVDEINQGMDSRNERIVHKAMVENACAENTSQYFLITPKLLTGLHYHEKMRIHCVMAGSWIPNPSEDPKMIHFGETSNYSFD
partner: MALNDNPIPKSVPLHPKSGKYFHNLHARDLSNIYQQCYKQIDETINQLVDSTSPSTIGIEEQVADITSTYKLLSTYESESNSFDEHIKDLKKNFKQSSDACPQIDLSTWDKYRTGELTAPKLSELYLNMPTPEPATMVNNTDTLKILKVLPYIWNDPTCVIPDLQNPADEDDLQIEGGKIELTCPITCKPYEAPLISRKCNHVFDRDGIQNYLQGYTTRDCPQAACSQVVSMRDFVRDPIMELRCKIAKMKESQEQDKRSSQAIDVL
B2: Structural maintenance of chromosomes protein 5 (Saccharomyces cerevisiae), Q08204 (parent)
chain: B1 chain

These results are taken from IntAct's records for PubMed 25764370.

Variants of B1 are the subject of one assay. Particulars: with nse2_yeast MMS21, P38632.
In the case of Q752A;L755A;L762A, the “effect of a mutation on the interaction” value is “decreasing interaction strength”.

Consider I780R;I784R;F787A;N791A, for which the “effect of a mutation on the interaction” value is on record as “disrupting interaction strength”.

In a further assay the parent is B2. Particulars: with smt3_yeast SMT3, Q12306.
Sequence of smt3_yeast SMT3, Q12306 (Q12306 whole entry): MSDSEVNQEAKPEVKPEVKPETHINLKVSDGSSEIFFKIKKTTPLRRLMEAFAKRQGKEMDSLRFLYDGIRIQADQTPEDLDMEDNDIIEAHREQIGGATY
Turning to Q752A;L755A;L762A, the “effect of a mutation on the interaction” value was “decreasing interaction strength”.

Consider I780R;I784R;F787A;N791A, for which the “effect of a mutation on the interaction” value was “disrupting interaction strength”.

As to M769A;K773A, the “effect of a mutation on the interaction” value is recorded as “decreasing interaction strength”.
